The values below come from article PMC7203548.

Test [1] addresses OTK1-5 K237A ectodomain, biotinylated (pHL-Avitag3) (Drosophila melanogaster) (UniProt Q6AWJ9). Description: SPR; equilibrium, apparent KD; biotinylated OTK immobilised on SA chip from dialysed conditioned medium; Biacore T200, PBS, 0.05% Tween 20, 25°C. (Surface plasmon resonance follows binding to a sensor surface in real time, without labels.)
The target in test [2] is PlexA_(ecto) (full-length ectodomain of Drosophila Plexin A, all ten domains, residues 28-1272), biotinylated (Drosophila) (UniProt Q9V491). The test is described as follows: SPR; equilibrium, apparent KD; biotinylated PlexA constructs immobilised on SA chip from dialysed conditioned medium; Biacore T200, PBS, 0.05% Tween 20, 25°C.
UniProt Q9V491, sequence (Q9V491 entry or part of it): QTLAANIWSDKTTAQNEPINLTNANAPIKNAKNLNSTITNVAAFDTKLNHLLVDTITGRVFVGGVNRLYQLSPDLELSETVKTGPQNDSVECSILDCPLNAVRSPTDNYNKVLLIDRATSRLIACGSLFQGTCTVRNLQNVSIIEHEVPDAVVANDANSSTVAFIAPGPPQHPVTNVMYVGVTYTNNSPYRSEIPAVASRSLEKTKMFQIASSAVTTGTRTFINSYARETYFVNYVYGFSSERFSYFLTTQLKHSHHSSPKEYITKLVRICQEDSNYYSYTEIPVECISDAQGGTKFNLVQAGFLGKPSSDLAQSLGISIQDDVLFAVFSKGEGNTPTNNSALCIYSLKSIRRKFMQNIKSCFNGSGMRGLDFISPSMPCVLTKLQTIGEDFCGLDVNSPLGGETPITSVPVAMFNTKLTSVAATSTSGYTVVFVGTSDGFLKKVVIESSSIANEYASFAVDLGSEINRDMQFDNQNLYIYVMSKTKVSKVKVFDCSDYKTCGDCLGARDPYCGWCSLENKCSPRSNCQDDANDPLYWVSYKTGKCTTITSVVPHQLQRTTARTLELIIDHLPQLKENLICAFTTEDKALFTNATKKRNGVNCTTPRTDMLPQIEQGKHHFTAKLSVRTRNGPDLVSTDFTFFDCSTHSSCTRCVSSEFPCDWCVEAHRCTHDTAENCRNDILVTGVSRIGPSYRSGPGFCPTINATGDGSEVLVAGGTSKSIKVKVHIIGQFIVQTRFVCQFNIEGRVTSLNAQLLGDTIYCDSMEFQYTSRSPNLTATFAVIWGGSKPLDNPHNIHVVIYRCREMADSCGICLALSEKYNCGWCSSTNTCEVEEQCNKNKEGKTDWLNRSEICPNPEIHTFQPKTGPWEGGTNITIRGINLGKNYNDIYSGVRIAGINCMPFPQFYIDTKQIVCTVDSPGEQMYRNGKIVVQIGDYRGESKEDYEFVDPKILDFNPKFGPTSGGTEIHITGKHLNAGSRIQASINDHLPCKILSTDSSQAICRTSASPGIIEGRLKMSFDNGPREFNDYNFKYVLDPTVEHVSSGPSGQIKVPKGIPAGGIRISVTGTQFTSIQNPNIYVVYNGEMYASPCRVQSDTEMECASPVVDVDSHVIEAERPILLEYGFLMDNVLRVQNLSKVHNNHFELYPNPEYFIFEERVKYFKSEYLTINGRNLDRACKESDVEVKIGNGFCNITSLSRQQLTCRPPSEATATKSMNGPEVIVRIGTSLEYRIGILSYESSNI

pKd: −log10 of the molar value.

UniProt Q6AWJ9, sequence (Q6AWJ9 23-580 K237A): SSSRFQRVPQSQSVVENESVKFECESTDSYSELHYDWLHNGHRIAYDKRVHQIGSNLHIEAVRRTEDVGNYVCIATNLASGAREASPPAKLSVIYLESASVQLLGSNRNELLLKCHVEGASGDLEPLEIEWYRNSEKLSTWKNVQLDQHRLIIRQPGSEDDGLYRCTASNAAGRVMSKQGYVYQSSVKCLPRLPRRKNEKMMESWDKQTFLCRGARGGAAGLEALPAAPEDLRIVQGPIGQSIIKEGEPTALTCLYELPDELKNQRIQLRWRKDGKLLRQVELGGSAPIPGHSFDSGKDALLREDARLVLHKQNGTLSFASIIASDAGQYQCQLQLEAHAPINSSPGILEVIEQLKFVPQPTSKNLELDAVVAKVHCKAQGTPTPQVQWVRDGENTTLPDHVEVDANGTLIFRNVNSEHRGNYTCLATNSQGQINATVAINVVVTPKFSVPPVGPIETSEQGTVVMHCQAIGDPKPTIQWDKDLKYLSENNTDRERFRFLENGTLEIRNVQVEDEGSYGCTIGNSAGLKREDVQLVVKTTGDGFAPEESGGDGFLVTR

Consider “Sema1a ectodomain (Drosophila semaphorin 1a) (from UniProt Q24322 1-899) (ligand)”, for which the pKd – broadly, the negative decadic logarithm of the Kd, by convention in mol/L – was 5.40 in test [1] and 5.13 in test [2].
